Measurements taken from a protein production outcome set (Wang et al. 2014).

Assay: label from the status in PepcDB records

| Sequence | protein production |
| --- | --- |
| MEPKVTIHRYYSRQAKYEGAVEADLELCIKHCGGDVVRIELVNRLHGIQLQRKLRRLLLLMFLSIAYFVGTCGFDNRTISFLQPRILYPLITCASVAILLIRSTLNLVQAERLFYSWDMALQMETVRSFGRESVLCVQRGHIEDIVLNEVIEDLDVKYMLILRTKGSQFKKRPIIPLFNSQSPSIECLQHTYHVLHKYWLNSTKDRSEESYSKDKQSLVNS | failed |
| MRARHASCMHPPSLSADPVALMTDTPASSETSASGWRRALPVIVSLAILAMALHALSSQFTDHGYRQIRHAFRALGAGQITLTLLLGLSSYVCLVGFDWVGLKRTGKQLHPARVGITAFMAHAVGQTLGFAALTGGAVRLRGYGSVGLTLAEIGQVVLMSTLGFIFGAWVLLGLALMLEPEAAARALPITAQAIRIAGIALLVGYVAMLMLVGRQGREFGIRSHRFWLPDRTTVLGVTALSVVELGLAAAAFYVLLPPDSGTGYFGFIGIWLVAVVAGLISTVPAGLGVFEWSLLELLPHVTPAAVLAAALVYRVTYYIVPLLISVAMAAASGLRVPVRVGASTARSVWKALRPWLPQILALAVFAVGAALVIDGTLPTPAARQEVAPLPLIETSHLLVSLGGMMLLLIGQGLQRRSHSAWMLALGVCLLVPPFALLRGSHISVSLSAALAAVALWAARREFYRQGALLDEAWSWRWLSNLGLVLVATFWLLFFVYSHVEYSNDLWWQFATSANAPRALRAALILCVGVIVFGMARLLRGGRRPMPAADAPTLRTLAPILATSTDTQACLALTGDKAFLLDEQSSGFVMMQRYGGSLISMGDPVGSPEVARALIWRFREEADQMGLRTVFYQVGEKHWQTYLDMGLTLVKLGEEAIVPLEGFTLEGRDRADLRQAWNRGKRGGLSFRMLQPEQVDEVLPRLAEVSDQWMEEKSGEEKGFSLGSFDADYLRRFPVAVAEAEGQIVAFANVWWAPAGGELSVDLMRHSAEAPKGTMDFLFIELFLWGQANGYTRFSLGMAPLSGLAEHRLAGRWNRFASLVARHGERFYGFSGLRRFKSKFDPTWRPRYLVAPGGMHLPAALLDVTRLISADPRRQE | failed |
| ASASIKKVAATLADAAITDGIGDATKAKAALDKISDAGGLIEDIGATRAQFGANINRLEHTMTNLGNMVENTSAAKGRIM | failed |
| MLFRHKGILYLFLSSLIISAANPVIAKLITLGNEHLVNGRNPISFCNVLFAGNFIAVLTLILIHFRELKEFQPEHLTAKNWCLIFLAALFAGFLTPTLFFLGLMYTNVINVVLISNLQIPMTLLAGWIFLGEVPNIRVTTGAFLATLGVFAIVILQYWLGGAGALTPNPEMKTGPLFIFLSSIPRSGEICIFLAVVSSTASTIIGFHALRRLPHYLFSILKMLLGLVLFFFIVISMFGWHHFADLFSPFLWEWMLFYGSVIIALRYYFSMLGMKHAKVAEVAISSSIIPLMSIIFSYLILGEVPGISQIIGGSLILFGIYVALTGKLQAPEKTEILEKPSGFSGV | failed |
| MLQRIGLIFLHNIVVVSNCFYFQAFLDEFTNWSRINPNKARIPMAGDTQGVVGTVSKPCFTAYEMKIGAITFQVATGDIATEQVDVIVNSTARTFNRKSGVSRAILEGAGQAVESECAVLAAQPHRDFIITPGGCLKCKIIIHVPGGKDVRKTVTSVLEECEQRKYTSVSLPAIGTGNAGKNPITVADNIIDAIVDFSSQHSTPSLKTVKVVIFQPELLNIFYDSMKKRDLSASLNFQSTFSMTTCNLPEHWTDMNHQLFCMVQLEPGQSEYNTIKDKFTRTCSSYAIEKIERIQNAFLWQSYQVKKRQMDIKNDHKNNERLLFHGTDADSVPYVNQHGFNRSCAGKNAVSYGKGTYFAVDASYSAKDTYSKPDSNGRKHMYVVRVLTGVFTKGRAGLVTPPPKNPHNPTDLFDSVTNNTRSPKLFVVFFDNQAYPEYLITFTA | failed |
| MELGAYRWKAPVGYLDEYVKSFRERKIIGSLCASCGRVYVPPREICARCFTETAEKVEVSQYGEVLAFLVSPPLEKGKVVIAGIDAVQAGFLKEGEQIILAMVRFEGTSSSLVLPLINTEPEKVRVGMKVKAVWAEECKGKLADLIGVEPAFEVIYKLEHHHHHH | failed |
| MDPERDALRIALYYALFSILWILSSDYLVALMFQPHVMVRLSVLKGSLFIILTSLLLYFLLKLYLRSLTDKERALRISEHKFRSLFMELPLGVVLMDTYGRILESNPAMGRFHGDSLDGMLIGEIHPDLEPGPDREFMVRMDGRWLRVVITRIEGGFLGIFEDLTDIKNSEEAARRSLEANRTLLAELHHRVKNNLQIISSLISIQSSKMPREHAEIMRSLQLRIKSIAVIHEMLLSSPESSSISFASYVSGLTGYLRDMYQSAAEFELDVPDVEFNIETAVPLGLIVGELVSNSLRHAFTDGGTIRISLEARDDGFILVVADNGGAFPITSAFRNQPASAWSLLRIW | failed |
| MAGLSTAELVDIALEMAEMRTLPADSAVYVESTDLKRVMMGIDIGPAELLLARQLGCDGVIAHHPAGGSATLNFPEVLTRHVELMVEHGVPATAARDAIQGLLTRSLLRAQSANHDHTPSVARLLEMPFLNIHLPLDEVGRRIMVKTIQEAVEPLGDEARVQDAIDALMTLPEFAGAATRIMVPVGAVDQPLGKIAVVHGAGTNGGYAVARAYFDHGVRTVLYIHIAPEEAERLRREGGGNLIVTGHIASDLVGINRYVQALEERGVEVVRMSGL | not failed |
| MIPMFTVTLEDSGTLWKSLHSSSESEMTTLPPLPMTRPKLTALARQKLPCSSRKIPRSQLIKEKDDIDHYLEVNFKGLSKEEVAAYRNSYKKNICVDMLRDGYHKSFTELFALMERWDALREAARVRSLFWLQKPLEEQPDKLDYLYHYLTRAEDAERKESFEDVHNNLYALACYFNNSEDKWVRNHFYERCFKIAQLIKIDCGKKEAEAHMHMGLLYEEDGQLLEAAEHYEAFHQLTQGRIWKDETGRSLNLLACESLLRTYRFLSDKMLENKEYKQAIKILIKASEIAKEGSDKKMEAEASYYLGLAHLAAEEYETALTVLDTYCKISTDLDDDLSLGRGYEAIAKVLQSQGEMTEAIKYLKKFVKIARNNFQSLDLVRASTMLGDIYNEKGYYNKASECFQQAFDTTVELMSMPLMDETKVHYGIAKAHQMMLTVNNYIESADLTSLNYLLSWKESRGNIEPDPVTEEFRGSTVEAVSQNSERLEELSRFPGDQKNET | failed |
| MDTAASPLTYRDATDADVDALVALIESAYRGDASRAGWTTEADILQGQRTDPQGVLEVVKAPDSRLLTVERDGRIVACCQLEHRGAHAYFGMFAVSPALQGAGLGKAIIAEAERQARTTWGVTEMHMTVISVRDDLIAWYERRGYRRTGETTPFPYGDERFGIPQRADLRFELLVKPLV | failed |
| MTFANTASINHYWRTHPALFTAMLLVVVLITSYFIDVFSGSAIAVLLILQLAVVVVALQCSANYAYFVAVFGAVSFNFLFTAPRYSLQMLNVEDIVNLTVFLLAALTSSKLAKHYRRQQDALEQAQLRNSILLSVSHDLRTPLATIIGTLTTLKEYQPKLSPAQTEELIDSAAAESHRLHQYIENLLQANKLQHGALKFSLDEANIREVLQRTIARFQTEQPRIQIQSEPELPSLMICSSLIEQAIFNVLDNALHYSPATQPVTVSLYRHQHMLRIDIQDQGKGIAPSQTGAIFELFYRQHPTTDGGAGLGLPVAKGIITAHNGTISAEKVAHGSLIRIALPITKESA | failed |
| MTRQGWLVPCLSHGKDDQLQDELSELSKAYRKKFQTDLHTKSGDIIDPSGEFLYVYLDEENYRICRQSMVLVSNAPDGLIATTLEPYSDSYTFRQVREQLQAFSGDGGRINYSRNEHSSSYFLTIQASNEFKHVGAVRNTFGQSKDIWKRRMPDASQPLDYHLIAVGCSAFLPEAALDDVESDGAVLEHHHHHH | not failed |
| MGSSHHHHHHSSGRENLYFQGMTKNTRFSPEVRQRAVRMVLESQGEYDSQWATICSIAPKIGCTPETLRVWGRQHERDTGGGDGGLTTAERQRLKEPERENRELRRSNDILRQASAYFAKAEFDRLWKK | not failed |
| MWPLISNELYKIIKKKKFWITFIVFFALFLAYSIVQYSSEKKYYEPKQRIAMDKLEIKTEKKQLNSPGINAEQKKKIKQYIKQDEKDIKDKKKEDASKDLDWHLRLNKELIQKKYEYIKDKGKGKNEDTEDASISVMKDEYYRDNNLNPYDKTGDLAMDSFLSSKAFMQILVVFIIIAVATSDIVSSEYSPATIKMLLAKPASRAKILFSKFIAILVGNIFIIGIPQVITYLILSFMNGFPNLSQPIAVGRMYQYDSSVILSNHNVGVSPILGSSYLITEGKYLLYLALLDLLFILGCVSICFLISVLIKNSAITIGINVGLGVVMSIIGLMTLEGAIPKALSAITPFLIMTYSSTDVLLMGDMAKRANNPGITVGMGIVVFIVYTVVCMGISTFVFSKKDMLA | failed |
| MDELFTESAKAVLAIAQEEAKYFRHQSVGSEHLLLALVLEPNGIAGKTLRQLNTDTEDIREEIEHLSGYGTMQSPMGNNNLYLPYSPRAKQIFAYAGDEAKRLGAQKIGTEHLLLGLLRDEEILASRILVNLGLSLSKMRQLLLKKMG | not failed |
| MQVTFHPRACRFLKTRKAEKPNNEPLYASTSNRETIGDTGMSNPWIAIGALAVVALAIPLTMMAVSSLLRPSVPEQGKRTTYESGEVPTGSSRQIKFNIQYYMVALLFVVFDIETVFIFPWTVIYSDAAAELGMTTALLPMVVFITILAIGLGWAWRNGAVQWVRSPRATKGADTYE | failed |
| MKLTHSFIKQQARLGLNFFRYLLARMNHDRVNVNAGYLAYITLLSMVPMLTVLLSILSSFALFANAGEVIQDFVITHFVPAAGEVVKTALIEFVANTGKMTAVGGAFLFVAAIMLISNIDKNLNYIWRVQQKRRAVFSFSMYWMILTLGPILVGASIAATSYITSLKILDNEALSGVYNLFLRWLPFVLSYCAFVGLYLLVPNKKVHWQHAMLGALIAAILFELSKKGFAAYITQFPSYQLIYGALAAIPILFVWVYLCWLIVLVGAEVTAALGEREHWSDSQDMLHFAPLPKNEKE | not failed |
| MRSYRAQGPLPGFYHYYPGVPAVVGVRVEERVNFCPAVWNTGLSADPPLFGVSISPKRFTHGLLLKARRFSASFHPFGQKDLVHWLGSHSGREVDKGQAPHFLGHTGVPILEGAYAAYELELLEVHTFGDHDLFVGRVVAVWEEEGLLDEKGRPKPGLALLYYGKGLYGRPAEETFAP | not failed |
| MLTEMHIAVIGGDARQLEVIRKLVELDAKLSLIGFDQLDHGFTGAAKESIQNLDFTSVDAIILPVAGTNAKGEVDTIFSNEKVSITKEQIENTPEHFTIYSGIGTPYLENLVSTTNRKLIKLFDRDDVAIYNSIPTVEGTLMMVIQHTDYTIHGSNVMVLGFGRTGMSVARAFQSLGAHVKVGARRSEHIARITEMMFSPFHMQDIEKEVGDIDIVINTIPHLVVTANVISKMPAHTLVIDLASKPGGTDFRYAEKRGVKALLAPGLPGIVAPKTAGQILANVLSQLLAEDVIARKENGE | failed |
| MVFFSVVVPTYNRRPILEKCLRALEQQQISAETAIAGYEVVVVDDGSTDGTVDWLKAQASEFPHVRLFEQDHQGPARARNLGVQQAQGDTIIFIDSDLVVTPPFLQAHATGLEKGRQRLGSDRCFTYGAVINTCNFDNPTAEPFKVTDFSNAYFATGNVAIARHWLETAGLFDTAFQLYGWEDLELGVRLKNLGLKLIRCPEAVGYHWHPPFSLEQIPKLIDQESQRGRMGVLFYQKHPTWEVRLMIQMTWLHRLLWGTLSLGGFLNERTLRPLLAWLLKRDRPQLALEIARIFLNWNNVRSVYAAYRESQGLASSLEHHHHHH | not failed |
| MSLTGRAFAIPLRTRFRGITVREGMLVRGAAGWGEFSPFAEYGPRECARWWAACYEAAELGWPAPVRDTVPVNATVPAVGPEEAARIVASSGCTTAKVKVAERGQSEANDVARVEAVRDALGPRGRVRIDVNGAWDVDTAVRMIRLLDRFELEYVEQPCATVDELAEVRRRVSVPIAADESIRRAEDPLRVRDAEAADVVVLKVQPLGGVRAALRLAEECGLPVVVSSAVETSVGLAAGVALAAALPELPYACGLATLRLLHADVCDDPLLPVHGVLPVRRVDVSEQRLAEVEIDPAAWQARLAAARAAWEQVEREPGPEGHHHHHH | not failed |
